These results are taken from patent publication US20240376222A1 (University of Texas, published 2024).

Experiment [1] has as its target T1, muTfR extracellular domain (ECD), His-tagged (mouse, UniProt Q62351 89-763).
T1 construct: extracellular domain; Bought protein (Sino Biological); also called muTfR-His; muTfR ECD
Description: BLI, biotinylated VEGFA on streptavidin sensors, no antibody, then muTfR ECD. The procedure:
To characterize the bispecific antibodies a BLI-based sandwich capture assay. The bispecific antibodies were first captured onto sensors via VEGF165A. After equilibrium in blank buffer, the sensor-captured bispecific antibodies were then incubated with muTfR ECD. The VEGF-Trap/TfR bispecific antibodies were shown simultaneously binding to both VEGF165 and TfR. To further validate the antigen binding, we introduced another three control groups that missed one of the three binding partners (VEGFA, Ab, or TfR). […] Finally, the flat curves without TfR confirmed the observed binding signals in curves A and E were antibodies binding to TfR.
Streptavidin sensors (Fortebio) were used to capture biotinylated VEGFA proteins (Sino Biological). During all incubation steps, samples were kept at room temperature with 1000 rpm shaking. In the VEGFA loading step, 100 nM biotinylated VEGFA proteins were incubated with the sensors for the designated time. In the bispecific antibody interaction steps, 200 nM antibodies were used. In the muTfR incubation step, 100 nM muTfR-His (Sino Biological) were used. Between incubations, the sensors were dipped into blank kinetic buffers to allow the free dissociation of proteins.
In general terms: In BLI a coated tip is dipped into the sample, and binding shifts an interference pattern.

The target in experiment [2] is T1, muTfR extracellular domain (ECD), …. The experiment is described as follows: competition ELISA on coated muTfR-His against 1 nM biotinylated Ab4, streptavidin-HRP. The procedure:
High-binding ELISA plates (Corning) were coated with muTfR-His at 2 μg/mL overnight at 4° C. After blocking with 1% BSA PBS, individual antibodies (at designated concentrations) and 1 nM biotinylated TfR Ab4 in 1% BSA PBS were incubated with coated muTfR for 2 hours at room temperature. After washing with PBS+0.05% Tween-20, streptavidin-HRP (Jackson ImmunoResearch) was added at 1:5000 concentration and incubated for 1 hour at room temperature. After washing with PBS+0.05% Tween-20, TMB substrate (Thermo Fisher Scientific) was added and incubated for 5 min before being stopped by 1N H₂SO₄. OD values were read at 450 nm.
A general note: ELISA stands for enzyme-linked immunosorbent assay.

Experiment [3] deals with T2, human TfR extracellular domain (ECD) (human, UniProt P02786 89-760).
T2 construct: extracellular domain; Bought protein; also called HuTfR; huTfR
Description: phage ELISA, scFv phage on coated TfR, anti-M13-HRP, single point.

T1 sequence (Q62351 89-763): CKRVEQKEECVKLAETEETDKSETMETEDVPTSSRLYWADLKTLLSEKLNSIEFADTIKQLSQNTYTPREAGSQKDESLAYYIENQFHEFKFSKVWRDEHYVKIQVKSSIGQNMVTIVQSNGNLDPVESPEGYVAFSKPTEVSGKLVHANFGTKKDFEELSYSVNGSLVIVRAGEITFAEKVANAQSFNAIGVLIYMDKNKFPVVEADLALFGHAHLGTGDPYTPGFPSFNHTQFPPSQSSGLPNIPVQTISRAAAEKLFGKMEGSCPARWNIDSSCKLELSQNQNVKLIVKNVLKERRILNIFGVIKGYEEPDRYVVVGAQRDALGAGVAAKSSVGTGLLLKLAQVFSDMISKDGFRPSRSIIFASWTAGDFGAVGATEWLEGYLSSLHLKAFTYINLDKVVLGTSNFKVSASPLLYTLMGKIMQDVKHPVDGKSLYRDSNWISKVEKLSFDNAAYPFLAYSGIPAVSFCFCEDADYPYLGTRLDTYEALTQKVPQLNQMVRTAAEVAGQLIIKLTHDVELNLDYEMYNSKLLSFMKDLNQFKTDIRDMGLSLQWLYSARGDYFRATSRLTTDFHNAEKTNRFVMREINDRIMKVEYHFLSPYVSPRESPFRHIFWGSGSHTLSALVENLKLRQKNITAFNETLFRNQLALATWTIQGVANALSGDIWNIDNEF

B1: VEGFA (VEGF165) (ligand, human, UniProt P15692-4 27-191, looked up)
chain: APMAEGGGQNHHEVVKFMDVYQRSYCHPIETLVDIFQEYPDEIEYIFKPSCVPLMRCGGCCNDEGLECVPTEESNITMQIMRIKPHQGQHIGEMSFLQHNKCECRPKKDRARQENPCGPCSERRKHLFVQDPQTCKCSCKNTDSRCKARQLELNERTCRCDKPRR
notes: also called VEGF165A; human VEGFA
In the case of B1, the binding result in experiment [1] is “no binding (tested: 100 nM muTfR-His)”.

B2: VEGF-Trap (Fc fusion, UniProt P17948 129-230, looked up)
chain: SDTGRPFVEMYSEIPEIIHMTEGRELVIPCRVTSPNITVTLKKFPLDTLIPDGKRIIWDSRKGFIISNATYKEIGLLTCEATVNGHLYKTNYLTHRQTNTIIDVVLSPSHGIELSVGEKLVLNCTARTELNVGIDFNWEYPSSKHQHKKLVNRDLKTQSGSEMKKFLSTLTIDGVTRSDQGLYTCAASSGLMTKKNSTFVRVHEK
notes: domain: D2 domain;domain: D3 domain; Designed on aflibercept; also called VEGF-Trap positive control; not shown: human Fc fragment
B2: in experiment [2], the binding result is listed as “no binding”.

B3: 3H8 (antibody, V domains shown)
VH: QVQLVQSGAEVKKPGESLRISCKGSGYSFTSYWISWVRQMPGKGLEWMGRIDPSDSYTNYSPSFQGHVTISADKSISTAYLQWSSLKASDTAMYYCARHPPRSTRGDYGMDVWGQGTMVTVSS
VL: QAVVTQPPSVSGTPGQRVTISCSGSNSNIGSYIVNWYQQLPGTAPKLLIWGNDRRPSGVPDRVSASKSGTSASLAISGLQSEDEGDYYCAAWDNILNNYVFGPGTQLTVL
notes: Human IgG1, converted from a phage scFv clone
On to B3, for which the binding result in experiment [3] was “binds”.

B4: 1C8 (antibody, V domains shown)
VH: QVQLVQSGAEVKKPGSSMKVSCKASGGTFSSYAISWVRQAPGQGLEWMGGIIPIFGTAKYAQKFQGRVTITADESTTTAYMELSSLSSEDTAVYYCARSLGWYYAFDIWGQGTMVTVSS
VL: DIVMTQSPSTLSASVGDRVTITCRASQNINNWLAWYQQKPGKAPKLLIYKASTAESGVPSRFSGSGFGTEFTLTISSLQPDDFASYYCQQYKNYPYSNLYTFGQGTKVDIK
notes: as for B3
B4: the binding result in experiment [3] is recorded as “binds”.
